Numbered stars: 1 amine (or outer) side, 2 acyl side, 3 side chain; on linkers, the order of the positions; unused ones are H or OH. Bridge positions count the residues as written; N and C are the ends. Side chains are listed from the residue outwards. Ends that are not written are not given here. * marks the point of attachment. C20 diacid = O=C(O)CCCCCCCCCCCCCCCCCCC(=O)*; γGlu = O=C(O)[C@H](CCC(=O)[*:2])N[*:1]
T1: human calcitonin receptor (human, UniProt P30988 25-474)
T1 sequence (looked up): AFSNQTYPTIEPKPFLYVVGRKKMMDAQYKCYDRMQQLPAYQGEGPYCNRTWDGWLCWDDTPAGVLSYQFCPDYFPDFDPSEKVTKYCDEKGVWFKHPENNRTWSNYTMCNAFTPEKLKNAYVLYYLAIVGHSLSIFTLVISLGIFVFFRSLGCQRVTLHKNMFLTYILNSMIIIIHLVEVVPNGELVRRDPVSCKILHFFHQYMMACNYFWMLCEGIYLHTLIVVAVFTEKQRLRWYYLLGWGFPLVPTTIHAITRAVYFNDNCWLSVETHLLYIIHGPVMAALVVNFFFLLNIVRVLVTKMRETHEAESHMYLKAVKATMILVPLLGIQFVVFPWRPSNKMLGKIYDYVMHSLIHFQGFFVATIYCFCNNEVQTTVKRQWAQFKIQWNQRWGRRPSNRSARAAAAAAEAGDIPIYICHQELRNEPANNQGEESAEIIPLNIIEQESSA

T2: human amylin receptor (amylin 3(a) receptor: human calcitonin receptor co-expressed with RAMP-3) (human, UniProt P30988 25-474; O60896 24-148, limits assumed)
T2 sequence (looked up) 1: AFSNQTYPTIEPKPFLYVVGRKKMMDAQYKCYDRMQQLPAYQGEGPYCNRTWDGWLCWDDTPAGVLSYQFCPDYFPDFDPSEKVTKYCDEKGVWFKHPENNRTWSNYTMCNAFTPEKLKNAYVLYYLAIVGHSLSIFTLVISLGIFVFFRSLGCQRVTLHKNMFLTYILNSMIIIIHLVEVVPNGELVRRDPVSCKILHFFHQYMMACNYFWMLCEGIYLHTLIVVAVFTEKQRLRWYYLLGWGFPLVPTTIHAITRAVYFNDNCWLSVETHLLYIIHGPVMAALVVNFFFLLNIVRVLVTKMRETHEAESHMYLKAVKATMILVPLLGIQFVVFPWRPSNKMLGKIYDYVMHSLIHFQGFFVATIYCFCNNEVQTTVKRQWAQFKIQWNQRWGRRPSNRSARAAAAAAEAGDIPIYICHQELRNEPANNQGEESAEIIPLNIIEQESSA
T2 sequence (looked up) 2: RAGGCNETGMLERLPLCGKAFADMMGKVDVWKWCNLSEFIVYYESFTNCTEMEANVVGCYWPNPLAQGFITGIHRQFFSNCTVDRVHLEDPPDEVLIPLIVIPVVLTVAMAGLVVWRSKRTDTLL


Assays:
[1] = target: T1, human calcitonin receptor; assay: cell-based or functional assay
[2] = target: T2, human amylin receptor (amylin 3(a) …); assay: cell-based or functional assay

hCTR funct. EC50 [1] [nM]	Ratio hCT/hAmylin funct. [2]	hAmylin-R funct. EC50 [2] [nM]	Binder
1.15	9.7	0.118	K([γGlu-C20 diacid])CNTATCATQRLAAFLRHSSPNFGAIPSSTNVGHNTY-NH2 (disulfide 2-7; N-terminus assumed; SMILES CC[C@H](C)[C@H](NC(=O)[C@H](C)NC(=O)CNC(=O)[C@H](Cc1ccccc1)NC(=O)[C@H](CC(N)=O)NC(=O)[C@@H]1CCCN1C(=O)[C@H](CO)NC(=O)[C@H](CO)NC(=O)[C@H](Cc1c[nH]cn1)NC(=O)[C@H](CCCNC(=N)N)NC(=O)[C@H](CC(C)C)NC(=O)[C@H](Cc1ccccc1)NC(=O)[C@H](C)NC(=O)[C@H](C)NC(=O)[C@H](CC(C)C)NC(=O)[C@H](CCCNC(=N)N)NC(=O)[C@H](CCC(N)=O)NC(=O)[C@@H](NC(=O)[C@H](C)NC(=O)[C@@H]1CSSC[C@H](NC(=O)[C@@H](N)CCCCNC(=O)CC[C@H](NC(=O)CCCCCCCCCCCCCCCCCCC(=O)O)C(=O)O)C(=O)N[C@@H](CC(N)=O)C(=O)N[C@@H]([C@@H](C)O)C(=O)N[C@@H](C)C(=O)N[C@@H]([C@@H](C)O)C(=O)N1)[C@@H](C)O)C(=O)N1CCC[C@H]1C(=O)N[C@@H](CO)C(=O)N[C@@H](CO)C(=O)N[C@H](C(=O)N[C@@H](CC(N)=O)C(=O)N[C@H](C(=O)NCC(=O)N[C@@H](Cc1c[nH]cn1)C(=O)N[C@@H](CC(N)=O)C(=O)N[C@H](C(=O)N[C@@H](Cc1ccc(O)cc1)C(N)=O)[C@@H](C)O)C(C)C)[C@@H](C)O, also called compound 93)
5.13	–	0.037	K([γGlu-C20 diacid])CNTATCATQRLARFLRHSSPNFGAIPSSTPVGSNTY-NH2 (disulfide 2-7; N-terminus assumed; SMILES CC[C@H](C)[C@H](NC(=O)[C@H](C)NC(=O)CNC(=O)[C@H](Cc1ccccc1)NC(=O)[C@H](CC(N)=O)NC(=O)[C@@H]1CCCN1C(=O)[C@H](CO)NC(=O)[C@H](CO)NC(=O)[C@H](Cc1c[nH]cn1)NC(=O)[C@H](CCCNC(=N)N)NC(=O)[C@H](CC(C)C)NC(=O)[C@H](Cc1ccccc1)NC(=O)[C@H](CCCNC(=N)N)NC(=O)[C@H](C)NC(=O)[C@H](CC(C)C)NC(=O)[C@H](CCCNC(=N)N)NC(=O)[C@H](CCC(N)=O)NC(=O)[C@@H](NC(=O)[C@H](C)NC(=O)[C@@H]1CSSC[C@H](NC(=O)[C@@H](N)CCCCNC(=O)CC[C@H](NC(=O)CCCCCCCCCCCCCCCCCCC(=O)O)C(=O)O)C(=O)N[C@@H](CC(N)=O)C(=O)N[C@@H]([C@@H](C)O)C(=O)N[C@@H](C)C(=O)N[C@@H]([C@@H](C)O)C(=O)N1)[C@@H](C)O)C(=O)N1CCC[C@H]1C(=O)N[C@@H](CO)C(=O)N[C@@H](CO)C(=O)N[C@H](C(=O)N1CCC[C@H]1C(=O)N[C@H](C(=O)NCC(=O)N[C@@H](CO)C(=O)N[C@@H](CC(N)=O)C(=O)N[C@H](C(=O)N[C@@H](Cc1ccc(O)cc1)C(N)=O)[C@@H](C)O)C(C)C)[C@@H](C)O, also called compound 63)
3.94	24.5	0.161	K([γGlu-C20 diacid])CNTATCATQRLANFLRHSSPNFGAIPSSTNVGRNTY-NH2 (disulfide 2-7; N-terminus assumed; SMILES CC[C@H](C)[C@H](NC(=O)[C@H](C)NC(=O)CNC(=O)[C@H](Cc1ccccc1)NC(=O)[C@H](CC(N)=O)NC(=O)[C@@H]1CCCN1C(=O)[C@H](CO)NC(=O)[C@H](CO)NC(=O)[C@H](Cc1c[nH]cn1)NC(=O)[C@H](CCCNC(=N)N)NC(=O)[C@H](CC(C)C)NC(=O)[C@H](Cc1ccccc1)NC(=O)[C@H](CC(N)=O)NC(=O)[C@H](C)NC(=O)[C@H](CC(C)C)NC(=O)[C@H](CCCNC(=N)N)NC(=O)[C@H](CCC(N)=O)NC(=O)[C@@H](NC(=O)[C@H](C)NC(=O)[C@@H]1CSSC[C@H](NC(=O)[C@@H](N)CCCCNC(=O)CC[C@H](NC(=O)CCCCCCCCCCCCCCCCCCC(=O)O)C(=O)O)C(=O)N[C@@H](CC(N)=O)C(=O)N[C@@H]([C@@H](C)O)C(=O)N[C@@H](C)C(=O)N[C@@H]([C@@H](C)O)C(=O)N1)[C@@H](C)O)C(=O)N1CCC[C@H]1C(=O)N[C@@H](CO)C(=O)N[C@@H](CO)C(=O)N[C@H](C(=O)N[C@@H](CC(N)=O)C(=O)N[C@H](C(=O)NCC(=O)N[C@@H](CCCNC(=N)N)C(=O)N[C@@H](CC(N)=O)C(=O)N[C@H](C(=O)N[C@@H](Cc1ccc(O)cc1)C(N)=O)[C@@H](C)O)C(C)C)[C@@H](C)O, also called compound 79) [N^ε1-[(4S)-4-carboxy-4-(19-carboxynonadecanoylamino)butanoyl]-[Arg17,Pro21,Pro27,Arg34]-h-amylin]
9.33	–	0.242	K([γGlu-C20 diacid])CNTATCATQRLARFLRHSSPNFGAIPSSTNVGPNTY-NH2 (disulfide 2-7; N-terminus assumed; SMILES CC[C@H](C)[C@H](NC(=O)[C@H](C)NC(=O)CNC(=O)[C@H](Cc1ccccc1)NC(=O)[C@H](CC(N)=O)NC(=O)[C@@H]1CCCN1C(=O)[C@H](CO)NC(=O)[C@H](CO)NC(=O)[C@H](Cc1c[nH]cn1)NC(=O)[C@H](CCCNC(=N)N)NC(=O)[C@H](CC(C)C)NC(=O)[C@H](Cc1ccccc1)NC(=O)[C@H](CCCNC(=N)N)NC(=O)[C@H](C)NC(=O)[C@H](CC(C)C)NC(=O)[C@H](CCCNC(=N)N)NC(=O)[C@H](CCC(N)=O)NC(=O)[C@@H](NC(=O)[C@H](C)NC(=O)[C@@H]1CSSC[C@H](NC(=O)[C@@H](N)CCCCNC(=O)CC[C@H](NC(=O)CCCCCCCCCCCCCCCCCCC(=O)O)C(=O)O)C(=O)N[C@@H](CC(N)=O)C(=O)N[C@@H]([C@@H](C)O)C(=O)N[C@@H](C)C(=O)N[C@@H]([C@@H](C)O)C(=O)N1)[C@@H](C)O)C(=O)N1CCC[C@H]1C(=O)N[C@@H](CO)C(=O)N[C@@H](CO)C(=O)N[C@H](C(=O)N[C@@H](CC(N)=O)C(=O)N[C@H](C(=O)NCC(=O)N1CCC[C@H]1C(=O)N[C@@H](CC(N)=O)C(=O)N[C@H](C(=O)N[C@@H](Cc1ccc(O)cc1)C(N)=O)[C@@H](C)O)C(C)C)[C@@H](C)O, also called compound 65)
16.8	41.6	0.405	K([γGlu-C20 diacid])CNTATCATQRLARFLRHSSPNFGAIPSSTNVGSNTY-NH2 (disulfide 2-7; N-terminus assumed; SMILES CC[C@H](C)[C@H](NC(=O)[C@H](C)NC(=O)CNC(=O)[C@H](Cc1ccccc1)NC(=O)[C@H](CC(N)=O)NC(=O)[C@@H]1CCCN1C(=O)[C@H](CO)NC(=O)[C@H](CO)NC(=O)[C@H](Cc1c[nH]cn1)NC(=O)[C@H](CCCNC(=N)N)NC(=O)[C@H](CC(C)C)NC(=O)[C@H](Cc1ccccc1)NC(=O)[C@H](CCCNC(=N)N)NC(=O)[C@H](C)NC(=O)[C@H](CC(C)C)NC(=O)[C@H](CCCNC(=N)N)NC(=O)[C@H](CCC(N)=O)NC(=O)[C@@H](NC(=O)[C@H](C)NC(=O)[C@@H]1CSSC[C@H](NC(=O)[C@@H](N)CCCCNC(=O)CC[C@H](NC(=O)CCCCCCCCCCCCCCCCCCC(=O)O)C(=O)O)C(=O)N[C@@H](CC(N)=O)C(=O)N[C@@H]([C@@H](C)O)C(=O)N[C@@H](C)C(=O)N[C@@H]([C@@H](C)O)C(=O)N1)[C@@H](C)O)C(=O)N1CCC[C@H]1C(=O)N[C@@H](CO)C(=O)N[C@@H](CO)C(=O)N[C@H](C(=O)N[C@@H](CC(N)=O)C(=O)N[C@H](C(=O)NCC(=O)N[C@@H](CO)C(=O)N[C@@H](CC(N)=O)C(=O)N[C@H](C(=O)N[C@@H](Cc1ccc(O)cc1)C(N)=O)[C@@H](C)O)C(C)C)[C@@H](C)O, also called compound 83) [N^ε1-[(4S)-4-carboxy-4-(19-carboxynonadecanoylamino)butanoyl]-[Arg14,Arg17,Pro21,Pro27]-h-amylin]
5.4	–	0.145	K([γGlu-C20 diacid])CNTATCATQRLANFLRHSSPNFGAIPSSTNVGHNTY-NH2 (disulfide 2-7; N-terminus assumed; SMILES CC[C@H](C)[C@H](NC(=O)[C@H](C)NC(=O)CNC(=O)[C@H](Cc1ccccc1)NC(=O)[C@H](CC(N)=O)NC(=O)[C@@H]1CCCN1C(=O)[C@H](CO)NC(=O)[C@H](CO)NC(=O)[C@H](Cc1c[nH]cn1)NC(=O)[C@H](CCCNC(=N)N)NC(=O)[C@H](CC(C)C)NC(=O)[C@H](Cc1ccccc1)NC(=O)[C@H](CC(N)=O)NC(=O)[C@H](C)NC(=O)[C@H](CC(C)C)NC(=O)[C@H](CCCNC(=N)N)NC(=O)[C@H](CCC(N)=O)NC(=O)[C@@H](NC(=O)[C@H](C)NC(=O)[C@@H]1CSSC[C@H](NC(=O)[C@@H](N)CCCCNC(=O)CC[C@H](NC(=O)CCCCCCCCCCCCCCCCCCC(=O)O)C(=O)O)C(=O)N[C@@H](CC(N)=O)C(=O)N[C@@H]([C@@H](C)O)C(=O)N[C@@H](C)C(=O)N[C@@H]([C@@H](C)O)C(=O)N1)[C@@H](C)O)C(=O)N1CCC[C@H]1C(=O)N[C@@H](CO)C(=O)N[C@@H](CO)C(=O)N[C@H](C(=O)N[C@@H](CC(N)=O)C(=O)N[C@H](C(=O)NCC(=O)N[C@@H](Cc1c[nH]cn1)C(=O)N[C@@H](CC(N)=O)C(=O)N[C@H](C(=O)N[C@@H](Cc1ccc(O)cc1)C(N)=O)[C@@H](C)O)C(C)C)[C@@H](C)O, also called compound 77) [N^ε1-[(4S)-4-carboxy-4-(19-carboxynonadecanoylamino)butanoyl]-[Arg17,Pro21,Pro27,His34]-h-amylin]

Source: patent US20140087995A1 (published 2014)
